± gives the uncertainty stated by the source.
B1: PDZ and LIM domain protein 2, residues 284 to 339; numbered along this chain, Q96JY6 (parent)
chain: HTCEKCSTSIANQAVRIQEGRYRHPGCYTCADCGLNLKMRGHFWVGDELYCEKHAR

Variants of: B1
Test: abundance fitness (aPCA) (normalised: wild type 0, dead -1); higher = more abundant; growth selection in yeast, the domain comes from the species named
Conditions: Homo sapiens

Abundance fitness of substitutions, site by site:
A31: D -0.175 ± 0.11, T -0.099 ± 0.095, W -0.052 ± 0.12, H -0.257 ± 0.1, F 0.039 ± 0.13, I -0.454 ± 0.19, S -0.103 ± 0.085, E 0.082 ± 0.12, G 0.019 ± 0.08, Y -0.226 ± 0.17, M 0.027 ± 0.087, N 0.086 ± 0.12, R 0.047 ± 0.067, C -0.146 ± 0.12, L 0.119 ± 0.079, P -0.238 ± 0.084, V -0.029 ± 0.075
G34: C -0.413 ± 0.1, K 0.073 ± 0.089, H 0.2 ± 0.17, Q -0.03 ± 0.12, Y -0.331 ± 0.13, F -0.196 ± 0.13, R -0.064 ± 0.084, I -0.352 ± 0.2, N 0.108 ± 0.13, E -0.146 ± 0.16, S 0.024 ± 0.076, P -0.356 ± 0.073, T -0.177 ± 0.1, A -0.09 ± 0.09, L -0.165 ± 0.064, W -0.799 ± 0.14
C30: Y -0.956 ± 0.12, S -0.921 ± 0.15, W -1.05 ± 0.23, P -0.671 ± 0.17, V -0.789 ± 0.19, T -0.642 ± 0.07
H42: D 0.078 ± 0.076, Y -0.393 ± 0.12, R -0.19 ± 0.064, I -0.282 ± 0.24, T 0.008 ± 0.14, V -0.064 ± 0.081, C -0.005 ± 0.14, G -0.301 ± 0.057, S 0.022 ± 0.065, M -0.162 ± 0.16, W -0.233 ± 0.064, P -0.053 ± 0.15, L 0.178 ± 0.084, K -0.113 ± 0.064, Q -0.032 ± 0.11, A -0.147 ± 0.076, E 0.16 ± 0.08
N36: T -0.125 ± 0.061, V -0.113 ± 0.059, E 0.099 ± 0.081, F -0.189 ± 0.093, P 0.108 ± 0.13, H -0.275 ± 0.18, D -0.257 ± 0.16, K -0.478 ± 0.12, M -0.07 ± 0.084, I -0.127 ± 0.16, C -0.116 ± 0.083, S -0.038 ± 0.077, L -0.145 ± 0.069, A -0.104 ± 0.06, G -0.093 ± 0.067
M39: G 0.223 ± 0.055, C -0.186 ± 0.17, S 0.057 ± 0.064, P 0.422 ± 0.11, Q 0.048 ± 0.12, T 0.173 ± 0.086, E 0.286 ± 0.063, A 0.226 ± 0.066, W -0.523 ± 0.068, Y 0.002 ± 0.067, I -0.347 ± 0.19, N 0.095 ± 0.13, F -0.186 ± 0.069, H -0.116 ± 0.18, K 0.071 ± 0.1, L -0.123 ± 0.075
L49: N -0.942 ± 0.47, H -0.343 ± 0.062, V -0.075 ± 0.086, P -0.154 ± 0.12, C -0.108 ± 0.066, W -0.39 ± 0.11, K -0.733 ± 0.14, M -0.205 ± 0.13, R -0.885 ± 0.13, E -0.377 ± 0.081, S -0.341 ± 0.081, F -0.343 ± 0.19, G -0.286 ± 0.068, I 0.117 ± 0.18, Q -0.174 ± 0.12, Y -0.269 ± 0.25, A -0.159 ± 0.068, T -0.207 ± 0.097
C33: F -0.876 ± 0.14, N -0.741 ± 0.083, D -0.695 ± 0.19, Y -0.823 ± 0.15, A -0.94 ± 0.072, S -0.828 ± 0.11, G -0.682 ± 0.061, M -0.947 ± 0.079, T -0.747 ± 0.1, V -0.885 ± 0.15, E -1.05 ± 0.18, H -0.709 ± 0.12, R -0.964 ± 0.086, P -0.757 ± 0.16, L -0.549 ± 0.084, W -0.765 ± 0.17
D32: R 0.124 ± 0.077, Q -0.336 ± 0.096, Y -0.106 ± 0.087, M -0.022 ± 0.095, G -0.178 ± 0.054, A -0.361 ± 0.078, V -0.245 ± 0.093, E -0.171 ± 0.083, T 0.057 ± 0.061, W -0.235 ± 0.06, P -0.824 ± 0.17, F 0.006 ± 0.082, H 0.027 ± 0.11, I -0.284 ± 0.11, S -0.193 ± 0.072, L -0.099 ± 0.075, C -0.188 ± 0.12
V45: Y 0.066 ± 0.062, K 0.313 ± 0.1, Q -0.092 ± 0.12, A 0.022 ± 0.087, T -0.585 ± 0.12, M -0.057 ± 0.07, R 0.108 ± 0.051, N -0.155 ± 0.089, C -0.242 ± 0.16, L -0.063 ± 0.073, I 0.29 ± 0.12, H 0.221 ± 0.11, E 0.041 ± 0.083, D -0.434 ± 0.12, P -0.361 ± 0.12, W -0.116 ± 0.094, S -0.11 ± 0.072, G 0.107 ± 0.061
G46: Y 0.044 ± 0.17, I -0.223 ± 0.18, R -0.031 ± 0.067, S -0.066 ± 0.07, M -0.276 ± 0.14, C -0.202 ± 0.16, K 0.019 ± 0.12, N 0.112 ± 0.13, Q -0.206 ± 0.11, P -0.324 ± 0.093, A -0.206 ± 0.092
